The nature of the data set: soluble on expression in E. coli; label from the status in PepcDB or PDB records.
With “MNDAVITLNGLEKRFPGMDKPAVAPLDCTIHAGYVTGLVGPDGAGKTTLMRMLAGLLKPDSGSATVIGFDPIKNDGALHAVLGYMPQKFGLYEDLTVMENLNLYADLRSVTGEARKQTFARLLEFTSLGPFTGRLAGKLSGGMKQKLGLACTLVGEPKVLLLDEPGVGVDPISRRELWQMVHELAGEGMLILWSTSYLDEAEQCRDVLLMNEGELLYQGEPKALTQTMAGRSFLMTSPHEGNRKLLQRALKLPQVSDGMIQGKSVRLILKKEATPDDIRHADGMPEININETTPRFEDAFIDLLGGAGTSESPLGAILHTVEGTPGETVIEAKELTKKFGDFAATDHVNFAVKRGEIFGLLGPNGAGKSTTFKMMCGLLVPTSGQALVLGMDLKESSGKARQHLGYMAQKFSLYGNLTVEQNLRFFSGVYGLRGRAQNEKISRMSEAFGLKSIASHATDELPLGFKQRLALACSLMHEPDILFLDEPTSGVDPLTRREFWLHINSMVEKGVTVMVTTHFMDEAEYCDRIGLVYRGKLIASGTPDDLKAQSANDEQPDPTMEQAFIQLIHDWDKEHSNE”, the “soluble on expression in E. coli” value is “soluble”.
Next, “MKIIKRNGSEAVFDISKIMMAVSRANEVVQANQKLSKAQINAIAAQVEEVCSTRPHAMNVEEIQDLVENQIMEQQAFEVARKYITYRYIRTLKRSSN”: “not soluble”; “MVCSRSVSLLFTLLVGVYASTATDPIDSISTQGADILNRAKLTGQTVRQCSCSEQRVCVEEMKLQAKDCTVPCFQKFSSITSRPNDLKKCFDEKDNILEDFLTCFENRVEACVNDQHGPQIQKTDIRGIFKVTEKSIATQTNTFQTMIKPIKHILDATGDFALCVKDCFLEKNKSGFCFDRKGCQPLVAETKARQSFRACTKKMHWKREAGELCECSVQAGVDSRELRQYCAMFKLMRRRAPMRKSRG”: “not soluble”.
Next, “SIPALHRLVTVNMIPDASNDNIMVMRSYQIQATREILQRMKEMEASGLVQKEGGYIWHTTGSGKTVTSFKVAQLLASAPRIKNVLFIVDRIDLIDQTLENFKSFAYAHFKNRIKKVNGRELKRELKRKGSSQILLISVQGLTKAVKKGLENDDWNVIIMDEAHRSASGESVKLIKKALKKTTWFGFTGTPN”: “not soluble”; “MGSDKIHHHHHHMRILLIHQNFPGQFKHLAPALVANGHEVRTLTLRQDLPDQWQGVTVHRYRAQRNSSPTVHPWVGDFETKVIRGEACFRAALQLRNQGYQPDLILAHPGWGETLFLQDVWPAAKLAIYCEFYYRSAGSDVDFDPEFQRPQGEEDTACRLQLKNLIYTMQGDRVTAGIAPTHWQADQFPEPLRSKITVVHDGIDTEAIAPNPSATITLNNQLKLGRNDEVITFVNRNLEPYRGYHIFMRSLPEILQQRPKARVILVGGDDVSYGARPPAGTWKQIFLKEVADRLDLSRVHFVGKIPYNAFLSLLQVSSVHVYLTYPFVLSWSLIEAMSCGCAIVASDTAPVREVISDGETGRLVNFFDPAGLAATVSELLASPSARAKLGKKARLFAQNHYDLQRVCLPQQMQWVRSLA”: “not soluble”; “MKWEMGLQEEYIELIKAGKKKIEGRLYDEKRRQIKPGDIIIFEGGKLKVKVKGIRVYSSFKEMLEKEGIENVLPGVKSIEEGVKVYRQFYDEEREKKYGVVAIEIEPIE”: “soluble”.
Take “MGHHHHHHSHQADEGQARKSQLQRRFKEFLRQYRVGTDRTGFTFKYRDELKRHYNLGEYWIEVEMEDLASFDEDLADYLYKQPAEHLQLLEEAAKEVADEVTRPRPSGEEVLQDIQVMLKSDASPSSIRSLKSDMMSHLVKIPGIIIAASAVRAKATRISIQCRSCRNTLTNIAMRPGLEGYALPRKCNTDQAGRPKCPLDPYFIMPDKCKCVDFQTLKLQELPDAVPHGEMPRHMQLYCDRYLCDKVVPGNRVTIMGIYSIKKFGLTTSRGRDRVGVGIRSSYIRVLGIQVDTDGSGR”: the “soluble on expression in E. coli” value is given as “not soluble”.
With “MGSDKIHHHHHHMAYVPNPVNIGVVYTENAAVLVDSGLDESVPRKISRLLQKPPLYLINTHSHADHCGGNAFLKKRFSTRVFAPKMEKEIIENTVFEPFYLYGAYPPNELRNKFLMAEPSAVDEVIEEGTITIESVDLEIVPLSGHSTNQIGVAVDGVLFCADAVFSEETLRKHRIFVIYNVEKFLETLDFLEKTSYSYYVPSHGEVTRDIGELVEKNRKAVENIINAVLEITVNPLSTDELMKQLFDRFEITLENLTQYILYRSTVHAYLSFLLDRKEIEREFRNNVLVWRRC”, the “soluble on expression in E. coli” value is reported as “not soluble”.
Next, “MHYCDLDIAECDGVYPPSEDSFLIIEYASCSGKAIEIGCGTGIVSICFLKRGCDIEAVDISDLAVECAKDNASRNGLTLKVYRSDLFSGVSGTYDTILFNAPYIPVEGEDASWSGGRNLEVVSRFLGQAREHLSASGQIYIVLSDLTDNEGMFRMMGYDYFIIKKISFEFEAIVLYKLTLKALEHHHHHH”: “soluble”.
For “MTESIDGNPWRILELVAENEYHLEQDNNVDQLEQFSVIPGFQEELVEFAKKKLLDSIEVQQFLVERDIEFQEKNIASLIDELSDNQDDESNSKEIHLELKSSKNKYEGLRKKIASFKGRQQKAVGFLNSGLEEIRILTSPNDKFCYKVKNASWRCSVDNSIDLQKIKLICEKLIGLEKKMEVTFWTSEIMKLLENLDQRHYAVAFGIIIGMATWEYENSEKYHLLALIHLSIGRDETKTDVLLYWENWENESIEQSIVSLRILMIFYMKISIDDLECRENFEFRICQVIVFILEHKEFESSHLTMITELLGSIEQRFGNFTEMCDIMFTHFEAKAQMFDSYEAKMLVFMRNEHLSLLQTQHIDQCMDTLNILILLYLKIKIDKWTYREIIEQRISQFIICILEHTEFQSIHLTLIIQHLESIEQQFGCFSGKFDNMFKIFELKLQILDRPEQERVSKWIKSLSLRSSISEFSSEHSHSTVTVIEHSEKTYELEQNVRIDLEETLKLEKRIEEVSIEESKKKQEKLELKQREEEEARIKEEEEKQRKILEEEARKKQEEEEARLKAEEELKIYEEEKRKKELEEERKKKEELEIKRKAEEEKKKKALEEEKKRKIAEEKARQKQEKERKKQANKCTFLQNFTFIRHQHPSQTYNERVLDGKVVGLYFSAHWCPPSRDFTPVLAQFYSQVEDNFEILFVSSDNNTQEMNFYLQNFHGDWFHLPLNLCNSMKHRNTKNHIPALIIMKPDGTVITDDGRNLVSQWINDPKALVNHWKAMLN” the value was “not soluble”.
For “EIHHRIKNNLQVICSLLSLEAERFSDEKMLETLKESQNRVASMALIHEELYKGDKNDTLDFAAYLRKLTADLFSSYNLGNDNISLKMDL” the value was “not soluble”.
In the case of “MLEQLPYLALKTPPKTTALLKAECADFIVKEHLGYEMSGDGEFVALYVRKTDCNTLFVGEKLAKFAGVSERNMGYAGLKDRRAVTEQWFCLQMPGMETPDFSQFELDGVEILTVTRHNRKIRTGSLEGNYFDILLRGAEESDELKARLDFVANFGFPNYFTEQRFGRDGHNLTQALRWAQGEIKVKDRKKRSFYLSAARSEIFNLVVAARIEKSTINQVLPNDIVQLAGSHSWFKADEKEDLTALQVRLENQDILLTAPLIGEDILAASEIENEIVNQHSAFDPLMKQERMKAARRPLLMKAKGFSWAFEPEGLRLKFYLPAGSYATALVRELVNYTEE”, the “soluble on expression in E. coli” value is “soluble”.
Next, “MSLKVGECMTKFNWHESAEKKWDSSAEFWNQNSQEMWDSGSRSTIIPFFEQYVKKEAEVLDVGCGDGYGTYKLSRTGYKAVGVDISEVMIQKGKERGEGPDLSFIKGDLSSLPFENEQFEAIMAINSLEWTEEPLRALNEIKRVLKSDGYACIAILGPTAKPRENSYPRLYGKDVVCNTMMPWEFEQLVKEQGFKVVDGIGVYKRGVNEKMLGQLSTDLQQSLTFLWVFMLKRHKEMKEFLGGKEGHHHHHH”: “soluble”.
Next, “MGSDKIHHHHHHMMDLEGYVRRCLRKKIPENKIIEDGFKRILEIKEDVDEEFAKKFIKAILEEVKTTEKFREIDDENLKTLLKYPKSGVTMGRMGVGSRGEGDFFVHREIARIVKSTKVKAYVSAEEQDDAGIVRADAKYIVAAIDGTHSRLSDFPFLGGFHVTRAALRDIYVMGAEAVALISDVHLADDGDVGKIFDFTAGICAVSEAVNVPLIGGSTLRVGGDMVIGDRLVSAVGAIGVIKEGEPTARRNAEVGDVILMTEGSGGGTITTTALYYGWFDVIYETLNVDFIKACQNLIRSGLIKKIHAMTDVTNGGLRGDAYEISKTAKVSLIFDKEKVYKTINPKVLEMLEVLNIDPLGVSTDSLMIICPEEYADDIKKVTGAIEVGYVEEGEESYLVDGNKKIPLKPMFRESAYTPVKKVVGERKPGDFEEMKEKVRRACDEAIKKKDFVVELLKERKKKF”: “not soluble”.
With “MRCYAKIHSYQLLFVADVDYDCHHKDKFFRRHCVVAKILPRFDAVLFLDADTGVVNPSRKIEEFLKPGIDITFVNRFCNWEIASGFYLARNTPFAINLLNNFADYESKLPNSFHGTDNGAIHIFLAEKIFPQASIEIGICRRAYEKSTSVEDLILYEACIKALFGVVTDFGKIQILRKGTGWARDGWLTSMVWHPETDFMLHGWKTNALIPTPTDPLVAIEMSMSQWFNPLNGSIDLSKCNSHNSTWNYDARLLGNNEEIQKSLHRIQKENSILQVKAYSDFSKFISL”, the “soluble on expression in E. coli” value was “not soluble”.
Next, “SDTFSTKSLALQAQKKVLSKMASKAMVAVFVDNTSSEVLDELYQATKEFTRSRKEAQRVVKNLVKVAVKLAVLLRADQLDSNELAQLQRFRGRVRSLAMTALSFHQVDFTFDRRVLATGLLECRDLLHQAIGPHLTAKSHGRINHIFSHFANGDFLAALYSPAEPYRSHLCRICDGLGRMLDEGGI”: “soluble”; “MSLNALKREDAANKKLGVLIYENVQPMDVIGPWEVFATWKTILDASIDMFLVAESSNEVCCANQISLKPHCEFNNSPQFDYLLVPGGAGRREQVNNPRLISFLKKQAQNTDYLLSVCTGAFLLHAAGLLTHHEATTYWRAMPELKSFEDVQLVEKRIVKSGKVWTTGGISSGIDLAFEFISTIAGNDVAGKIQLLFEYFPECKLYSQPAMVSELPSYYATKKDEAVLEMNLPDYIKEYFKKSEGHHHHHH”: “soluble”.
In the case of “MSLRPTPAPSFSGVTVDGKPFSSASLKGKAYIVNFFATWCPPCRSEIPDMVQVQKTWASRGFTFVGIAVNEQLPNVKNYMKTQGIIYPVMMATPELIRAFNGYIDGGITGIPTSFVIDASGNVSGVIVGPRSKADFDRIVKMALGAKAATKKGIITITTDPNSSSVDKLAAALEHHHHHH”, the “soluble on expression in E. coli” value is on record as “soluble”.
For “MIIKSISLMHDRGNGLGGGFAAYGIYPDFKEFFAFHLMYENGMALQLTEEYLERHFFVEHYEEIPTRRTPAIVHPPLFKRYFVKPLETPEYREAIDYQNMTDEDVVVRHVMAINNEIEGAFVVSSGKNMGAFKGVGYPEEIADFFRLEEYTGYIWTAHNRFPTNTPGWWGGAHPFTLLDWSIVHNGEISSYGINKRYLEMYGYVCTMLTDTEVVAYTLDLLIRKHGLTPELASLAMAAPFWDMIDGLPDDERQLLTAIRQVYGSALLNGPFAILFASNEGLIGLNDRVKLRPLVCATKDDFVYMASEEAAIREICPAPDKVWSPRGGEPVIVKMQPGVI” the value was “not soluble”; for “MIDHALALTHIDERGAARMVDVSEKPVTLRVAKASGLVIMKPSTLRMISDGAAAKGDVMAAARIAGIAAAKRTGDLIPLCHPLGLDAVSVTITPCEPDRVKILATTTTLGRTGVEMEALTAVSVAALTIYDMCKAVDRAMEISQIVLQEKSGGRSGVYRRSASDLACQSR”, “soluble”; for “MAHHHHHHMCSDVKFSERLTTSPAVVTGFLSPTLRKVMKATMKNSDFNDNTNNSNNMNMFQNLPATLELNPSHTIVTSIYHLKNTNQEVAKLLVQQLYDNACIAAGILEDPRSLLSKLNELLLLTARYAYHYEKKDIQENTKDQPIDVKDNTMAIDNIVNTKENNTNDDSVMKEAQSSNL”, “soluble”.

Values taken from the DeepSol protein solubility set.
